# Measurements reported in patent publication US20250250357A1 (NANJING ZAIMING PHARMACEUTICAL, published 2025).
# Legend:
# [1] = target: T1, human MSLN protein endogenously expressed on OVCAR3 tumor cells (human, UniProt Q13421 296-598); experiment: FACS on OVCAR3 cells
# T1 construct: whole, on cells; Endogenous target on OVCAR3 cells; kept apart from the recombinant full-length construct; also called mesothelin
# Protocol: (§1) The desired cells were expanded to the logarithmic growth phase in a T-75 cell culture flask. […] After the cells from the previous step were subjected to cell counting, the cell pellet was resuspended to 2×10⁶ cells/mL in a blocking buffer of [PBS+2% (w/w) BSA] and added into a 96-well FACS reaction plate at 50 μL/well. A chimeric antibody (a sample to be tested) was added at 50 μL/well, and the plate was incubated on ice for 2 h. […] After the plate was centrifuged and washed 5 times with a PBST buffer, assay and analysis were performed by FACS (FACS CantoII, purchased from BD). Data analysis was performed by software (Flowjo) to obtain the mean fluorescence intensity (MFI) of the cells.
# [2] = target: T2, human MSLN-R3 protein (Met487-Ser606 of NCBI AAH09272.1) expressed on HEK293T-hMSLN-R3 cells (human, UniProt Q13421 487-606); experiment: FACS on HEK293T-hMSLN-R3 cells
# T2 construct: also called Region3
# T2 sequence (Q13421 495-614): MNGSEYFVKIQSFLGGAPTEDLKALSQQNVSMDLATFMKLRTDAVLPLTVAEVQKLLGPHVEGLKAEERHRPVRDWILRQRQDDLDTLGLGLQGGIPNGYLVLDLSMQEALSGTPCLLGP
# Protocol: as §1
# [3] = target: T3, human MSLN full-length protein (NCBI: AAH09272.1) expressed on HEK293T-hMSLN-B8 cells (human, UniProt Q13421 296-598); experiment: FACS on HEK293T-hMSLN-B8 cells
# T3 construct: Whole encoded precursor
# T3 sequence (Q13421 other isoform, or with tags, fused parts or gaps limits assumed): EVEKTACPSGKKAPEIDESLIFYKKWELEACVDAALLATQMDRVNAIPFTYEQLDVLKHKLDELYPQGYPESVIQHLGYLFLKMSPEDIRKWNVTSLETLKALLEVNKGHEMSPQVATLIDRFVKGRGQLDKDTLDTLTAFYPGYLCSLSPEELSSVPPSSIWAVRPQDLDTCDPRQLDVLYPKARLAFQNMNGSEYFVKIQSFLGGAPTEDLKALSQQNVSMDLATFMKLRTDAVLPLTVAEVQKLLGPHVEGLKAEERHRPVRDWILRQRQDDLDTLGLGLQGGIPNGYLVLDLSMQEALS
# Protocol: as §1
# [4] = target: T4, human MSLN-R2-his protein (human, UniProt Q13421 391-486); experiment: ELISA on coated antigen, antibody 20 nM
# T4 construct: it is put last here; also called human MSLN-R2 protein; hMSLN-R2-his; not shown: His tag
# T4 sequence (Q13421 other isoform, or with tags, fused parts or gaps): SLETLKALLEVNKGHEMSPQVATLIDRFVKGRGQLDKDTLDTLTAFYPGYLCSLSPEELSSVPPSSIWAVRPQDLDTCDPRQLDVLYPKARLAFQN
# [5] = target: T5, human MSLN-R3-his protein (human, UniProt Q13421 487-598); experiment: ELISA on coated antigen, no antibody (blank, column 'none')
# T5 construct: it is put last here; also called human MSLN-R3 protein; hMSLN-R3-his; not shown: His tag
# T5 sequence (Q13421 495-606): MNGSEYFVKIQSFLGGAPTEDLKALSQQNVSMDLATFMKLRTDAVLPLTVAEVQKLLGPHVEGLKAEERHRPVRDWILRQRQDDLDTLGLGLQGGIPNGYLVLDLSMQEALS
# [6] = target: T4, human MSLN-R2-his protein; experiment: ELISA on coated antigen, antibody 2 nM
# Protocol: (§2) The plate was sealed with a plastic film and incubated at 4° C. overnight. The next day, the plate was washed twice with PBST, and a blocking buffer [PBS+2% (w/w) BSA] was added for blocking at room temperature for 2 h. The blocking buffer was discarded, and a chimeric antibody or negative control antibody serially diluted from 100 nM was added at 50 μL/well. After incubation at 37° C. for 2 h, the plate was washed 3 times with PBST. […] After incubation at 37° C. for 2 h, the plate was washed 5 times with PBST. A TMB substrate was added at 50 μL/well for incubation at room temperature for 5-10 min, and then a stop solution (1.0 N HCl) was added at 50 μL/well.
# [7] = target: T4, human MSLN-R2-his protein; experiment: ELISA on coated antigen, antibody 0.2 nM
# Protocol: as §2
# [8] = target: T5, human MSLN-R3-his protein; experiment: ELISA on coated antigen, antibody 200 nM
# Protocol: as §2
# [9] = target: T5, human MSLN-R3-his protein; experiment: ELISA on coated antigen, antibody 0.2 nM
# Protocol: as §2
# [10] = target: T4, human MSLN-R2-his protein; experiment: ELISA on coated antigen, antibody 0.0002 nM
# Protocol: as §2
# [11] = target: T5, human MSLN-R3-his protein; experiment: ELISA on coated antigen, antibody 2 nM
# Protocol: as §2
# [12] = target: T4, human MSLN-R2-his protein; experiment: ELISA on coated antigen, no antibody (blank, column 'none')
# Protocol: as §2
# [13] = target: T5, human MSLN-R3-his protein; experiment: ELISA on coated antigen, antibody 0.0002 nM
# Protocol: as §2
# [14] = target: T5, human MSLN-R3-his protein; experiment: ELISA on coated antigen, antibody 0.002 nM
# Protocol: as §2
# [15] = target: T5, human MSLN-R3-his protein; experiment: ELISA on coated antigen, antibody 0.02 nM
# Protocol: as §2
# [16] = target: T4, human MSLN-R2-his protein; experiment: ELISA on coated antigen, antibody 200 nM
# Protocol: as §2
# [17] = target: T4, human MSLN-R2-his protein; experiment: ELISA on coated antigen, antibody 0.002 nM
# Protocol: as §2
# [18] = target: T5, human MSLN-R3-his protein; experiment: ELISA on coated antigen, antibody 20 nM
# Protocol: as §2
# [19] = target: T4, human MSLN-R2-his protein; experiment: ELISA on coated antigen, antibody 0.02 nM
# Protocol: as §2
# T1 sequence (Q13421 other isoform, or with tags, fused parts or gaps): as the sequence (Q13421 other isoform, or with tags, fused parts or gaps limits assumed) above, with P14R counted along it
OD450 [4] [OD],OD450 [5] [OD],OD450 [6] [OD],OD450 [7] [OD],OD450 [8] [OD],OD450 [9] [OD],OD450 [10] [OD],OD450 [11] [OD],OD450 [12] [OD],OD450 [13] [OD],OD450 [14] [OD],OD450 [15] [OD],OD450 [16] [OD],OD450 [17] [OD],OD450 [18] [OD],OD450 [19] [OD],Binder,also measured
0.09,0.06,0.06,0.05,2.6,1.95,0.27,2.25,0.07,0.14,0.23,0.04,0.28,0.05,2.37,0.05,"S009-F7.66.12 (antibody, human IgG1, kappa, V domains shown, Human-murine chimeric antibody, human IgG1 heavy and kappa light constant regions) VH: QIPLQQSGPELVKPGASVRISCKASDYAFSSSWMNWVKQRPEKGLEWIGRIFVESGNTHYNDKFNGKATLTADKSSRTAYIQLSSLTSEDSAVYFCTRENIFYHGHSSWFAYWGQGTLVTVSA VL: DIVLTQSPASLVVSLGQRATISCRAGESVDDFGISYVHWYQQKPGQPPKLLIYRAANLESGIPARFSGSGSRTDFTLTINPVETDDVAIYYCQQNNKDPFTFGSGTKLEIKR",–
0.05,0.07,0.05,0.05,2.63,1.3,0.05,2.39,0.07,0.07,0.14,0.35,0.1,0.05,2.34,0.05,"S009-F7.65.13 (antibody, human IgG1, kappa, V domains shown, Human-murine chimeric antibody, human IgG1 heavy and kappa light constant regions) VH: EVQLQQSGPELVKPGTSVKILCKASGDTFTAYNMDWVKQRHGQSLEWIGDINPNTDSTIYNQKFEGKAILTVDKSSSTAYMELRSLTSEDTAVYYCARRKLGRGYFDYWGQGTTLTVSS VL: QIVLTQSPAIMSASPGEKVTMTCSVNLSVRYIYWYQQKPGSSPRLLIHDTSNLASGVPVRFSGSGSGTSYSLTISRMEAEDAATYYCQQWSSFPYTFGGGTKLEIKR",–
2.42,0.06,1.42,0.47,2.12,1.9,0.12,2.33,0.07,0.35,0.65,0.97,2.54,0.11,2.26,0.17,"Tab106 (YP218, hIgG1) (antibody, V domains shown, Control antibody; YP218 VH and VL recombined into human IgG1 CH and CL expression vectors; also called YP218 human IgG1 antibody) VH: QQQLEESGGGLVKPEGSLTLTCKASGFDLGFYFYACWVRQAPGKGLEWIACIYTAGSGSTYYASWAKGRFTISKASSTTVTLQMTSLAAADTATYFCARSTANTRSTYYLNLWGPGTLVTVSS VL: DVVMTQTPASVSEPVGGTVTIKCQASQRISSYLSWYQQKPGQRPKLLIFGASTLASGVPSRFKGSGSGTEYTLTISDLECADAATYYCQSYAYFDSNNWHAFGGGTEVVVRT",–
0.07,0.07,0.06,0.06,2.75,1.93,0.05,2.45,0.06,0.11,0.24,0.69,0.1,0.05,2.49,0.05,"S009-F7.67.12 (antibody, human IgG1, kappa, V domains shown, Human-murine chimeric antibody, human IgG1 heavy and kappa light constant regions) VH: QVQLQQPGTELVKPGASVRLSCRASGYSFSSYWMHWVKQRPGQGLEWLGNINPTTGDINYNEKFRNRATLAVDKSSTTAYLQLTSLTSEDSAVYFCVRHDGFLWGQGTTLTVSS VL: DIQMTQSPASLSASVGETVTITCRASENIYSYLAWYQQKQGKSPQLLVYYAKTLAEGVSSRFSGSGSGTQFSLKINSLQPEDFGTYYCQHQFGTPRTFGGGTKLEIRR",–

# Continued, binder first:
Binder,OD450 [4] [OD],OD450 [5] [OD],OD450 [6] [OD],OD450 [7] [OD],OD450 [8] [OD],OD450 [9] [OD],OD450 [10] [OD],OD450 [11] [OD],OD450 [12] [OD],OD450 [13] [OD],OD450 [14] [OD],OD450 [15] [OD],OD450 [16] [OD],OD450 [17] [OD],OD450 [18] [OD],OD450 [19] [OD],also measured
"S009-F2.38.12 (antibody, human IgG1, kappa, V domains shown, human-murine chimeric antibody, human IgG1/kappa constant regions) VH: QVQLQQPGTELVKPGASVKLSCKASGYTFTSYWMHWVKQRPGQGLEWIGNINPSNGGTNYNEKIKNKATLTVDKSSSTAYMQLSSLTSEDSAVYYCARWNYYGNYPFDYWGQGTTLTVSS VL: DIVMTQSQKFMSTTVGDRVSITCKASQNVGTAVAWYQQKPGQSPKLLIYSASNRYTGVPDRFTGSGSGTDFTLTISNMQSEDLADYFCQQYSSYPLTFGAGTKLELKR",–,–,–,–,–,–,–,–,–,–,–,–,–,–,–,–,Maximum mean fluorescence intensity [1]: 4510; Maximum mean fluorescence intensity [2]: 136; binding result [2]: no binding; EC50 [3]: ~0.82 nM; Maximum mean fluorescence intensity [3]: 97700
"S009-F7.61.21 (antibody, human IgG1, kappa, V domains shown, Human-murine chimeric antibody, human IgG1 heavy and kappa light constant regions) VH: DVQLQQSGPELVEPGASVRIPCKAAGHTFTDYNVDWVKQSHGQSLEWIGDVNPNTDGAIYNQKFEGKATLTVDTSSSTAYMELRSLTSEDTAVYFCARRRLGQGGFDSWGQGTTLTVSS VL: QVVLTQSPAIMSASPGEKVTLTCGASSSLISKYLYWYQQKPGSSPKLWIYSTSNLASGVPARFSGSGSGTSYSLTISSMEAEDAASYFCHQWSSYPYTFGGGTKVEIKR",0.06,0.06,0.05,0.05,2.61,0.8,0.05,2.17,0.07,0.05,0.06,0.17,0.09,0.05,2.39,0.05,–
"S009-F7.53.2 (antibody, human IgG1, kappa, V domains shown, Human-murine chimeric antibody, human IgG1 heavy and kappa light constant regions) VH: EVQLQQSGPELVKPGASVKIPCKTSGYTFTDYNMDWVKQSHGKSLEWIGDINPNTDGAIYNQKFQNKATLTVDKSSSTAYMELRSLTSEDTAVYYCTRRKLGRKFFDYWGQGTTLTVSS VL: QIVLTQSPAIMSASPGEQVTMTCSASSSVGYMNWYQQKPGSSPRLLIYDTSNLASGVPVHFSGSGSGTSYSLTISRMEAAFAATYYCQQWYVYPYTFGGGTKLEIKR",0.06,0.06,0.05,0.05,2.69,0.5,0.05,1.71,0.07,0.05,0.06,0.14,0.08,0.05,2.42,0.05,–
"S009-F2.58.8 (antibody, human IgG1, kappa, V domains shown, human-murine chimeric antibody, human IgG1/kappa constant regions) VH: QVQLLQSGAELAKPGASVKLSCKASGYTFTSYWVHWVKQRPGQGLEWIGYINPNSGYTKYNQKFKDKATLTADKSSSTAYMQLSSLTYEDSAVYYCADHYYGSSRDYFDYWGQGTTLTVSS VL: QIVLTQSPAIMSASPGEKVTMTCSASSSVSYMYWYQQRPGSSPRLLIYDTSNLASGVPVRFSGSGSGTSYSLTISRMEAEDAATYYCQQWNSYPYTFGGGTKLEIKR",–,–,–,–,–,–,–,–,–,–,–,–,–,–,–,–,EC50 [1]: 1.82 nM; Maximum mean fluorescence intensity [1]: 13100; Maximum mean fluorescence intensity [2]: 366; binding result [2]: no binding; EC50 [3]: 3.5 nM; Maximum mean fluorescence intensity [3]: 141000
